These results are taken from patent publication US20180044385A1 (published 2018).

The test addresses human IgG1 scaffold. Description: SPR. For orientation: In SPR one partner is held on a chip, and binding of the other changes the refractive index at the surface.

B1: A1 (designed binder)
chain: MKGETTTEAVDAATAEKVFKQYANDNGVDGEWTYDDATKTFTVTEKPEVIDASELTPAVTTYKLVINGRTLSGYTTTTAVDAATAEKVFKQYAYVHEVDGEWTYDDATKTFTVTEKPEVIDASELTPAVTTYKLVINGRTLSGETTTKAVDAETAEKAFKQYANDNGVDGVWTYDDATKTFTVTE
The molecule B1 showed a Kd of 24 nM.

B2: WT (other)
chain: LTPAVTTYKLVINGKTLKGETTTKAVDAATAEKVFKQYANDNGVDGEWTYDDATKTFTVTEKPEVI
Regarding B2, binding was characterised by a dissociation constant (Kd) of 3000 nM.

One may read the Kd as the constant that tells how readily two partners part at equilibrium. Higher therefore signals weaker binding.
